According to US20230105029A1 (CHIA TAI TIANQING PHARMACEUTICAL GROUP, published 2023):
Where a chain is given by its changes, count along the chain named. Where two headings read alike, the source gives them in different places. Blank lines part the entries; values can stand above or below the binder they belong to.

Tests used:
[1] = biological target: T1, cynomolgus monkey IL4Rα-his protein (cynomolgus monkey, UniProt A0A2K5V580 33-239); assay: indirect ELISA, coated cyno IL4Rα-his
T1 construct: Bought protein; also called Cynomolgus IL4Rα; Cyno-IL4Rα-his; not shown: his tag
Procedure: (§1) The anti-IL4Rα antibodies' cross-reaction with cynomolgus IL4Rα proteins or cal-IL4Rα-his proteins were measured. Briefly, 96-well micro plates were coated with 2 μg/ml cynomolgus IL4Rα-his protein (Sino biological inc., Cat #90897—C08H) or 0.2 μg/ml cal-IL4Rα-his protein (Custom made by Sino biological inc., Cat #BAX2) in carbonate/bicarbonate buffer (pH 9.6), 100 μl/well, for 2 hours at 37° C. ELISA plates were washed once with wash buffer (PBS+0.05% w/v Tween-20, PBST) and then blocked with 200 μl/well blocking buffer (5% w/v non-fatty milk in PBST) for 2 hours at 37° C. Plates were washed again and incubated with 100 μl/well serially diluted anti-IL4Rα antibodies of the disclosure or controls (0.004-66.7 nM, 5-fold serial dilution in 2.5% w/v non-fatty milk in PBST, starting at 66.7 nM) for 40 minutes at 37° C. […] After a final wash, plates were incubated with 100 μl/well TMB (Innoreagents). The reaction was stopped 3-10 minutes later at 25° C. with 50 μl/well 1M H₂SO₄, and the absorbance was read at 450 nm. Data was analyzed using Graphpad Prism software and EC₅₀ values were reported.

[2] = biological target: T2, human IL4Rα expressed on 293F-IL4Rα cells (human, UniProt P24394 26-825); assay: flow cytometry on 293F-IL4Rα cells
T2 construct: whole, on cells; also called cell surface human IL4Rα
Procedure: Then, 2×10⁵ cells per well in 96 well-plates were incubated in 100 μL of the anti-IL4Rα antibodies or controls of various concentrations (starting at 80 nM with a 4-fold serial dilution) in FACS buffer for 40 minutes on ice. […] Following an incubation of 40 minutes at 4° C. in dark, cells were washed three times and resuspended in FACS buffer. Fluorescence was measured using a Becton Dickinson FACS Canto II-HTS equipment. Data was analyzed using Graphpad Prism software and EC₅₀ values were reported.

[3] = biological target: T3, recombinant human IL4Rα-his protein (in house made) (human, UniProt P24394 26-232, limits assumed); assay: competitive ELISA: coated human IL4Rα-his, blocked ligand biotin human IL4
T3 construct: also called Human IL4Ra-his
Procedure: The activity of the anti-IL4Rα antibodies of the disclosure to block IL4-IL4Rα interaction was measured in a competitive ELISA assay. Briefly, 100 μl human IL4Rα-his proteins (prepared in-house with SEQ ID NO: 57) were coated on 96-well micro plates at 2 μg/mL in PBS overnight at 4° C. The next day, plates were washed with wash buffer (PBS+0.05% w/v Tween-20, PBST), and blocked with 5% w/v non-fatty milk in PBST for 2 hours at 37° C. Plates were then washed again using wash buffer.
Serially diluted anti-IL4Rα antibodies or the controls (starting at 80 nM with a 4-fold serial dilution) in 2.5% w/v non-fatty milk in PBST, 100 μl per well, were added to the IL4Rα bound plates, and incubated with the human IL4Rα-his proteins at 37° C. for 40 minutes. Plates were washed 4 times using wash buffer, and then added and incubated for 40 minutes at 37° C. with 100 μl/well of 0.56 nM biotin-labeled human IL4 protein (Sino biological inc., Cat #11846-HNAE). Plates were washed again using wash buffer. Thereafter, the plates were added with 100 μl/well of streptavidin conjugated HRP (1:10000 dilution in PBST buffer, Jackson Immunoresearch, Cat #016-030-084) and incubated for 40 minutes at 37° C. Plates were washed again using wash buffer. Finally, TMB was added and the reaction was stopped using 1M H₂SO₄, and the absorbance was read at 450 nm. Data was analyzed using Graphpad Prism software and IC₅₀ values were reported.

[4] = biological target: human IL4Rα expressed on HEK293T-IL4Rα-STAT6-STAT6LUC-LB2 cells (human, UniProt P24394 26-825); assay: cell-based or functional assay
[5] = biological target: T2, human IL4Rα expressed on 293F-IL4Rα …; assay: flow cytometry on 293F-IL4Rα cells; remark: listed apart in the source
[6] = biological target: T1, cynomolgus monkey IL4Rα-his protein; assay: indirect ELISA on coated cynomolgus IL4Rα-his
Procedure: as §1

[7] = biological target: T2, human IL4Rα expressed on 293F-IL4Rα …; assay: flow cytometry, blocks biotin-IL4 binding to 293F-IL4Rα cells
Procedure: Then, 1×10⁵ cells per well in 96 well-plates were incubated in 100 μL of the anti-IL4Rα antibodies or controls of various concentrations (starting at 80 nM with a 4-fold serial dilution) in FACS buffer for 40 minutes on ice. The plates were washed twice with FACS buffer, and added and incubated for 40 minutes at 4° C. in dark with 100 μl/well 1.67 nM biotin-labeled human IL4 protein (Sino biological inc., Cat #11846-HNAE). The plates were washed twice with FACS buffer, and then added and incubated for 40 minutes at 4° C. in dark with 100 μl/well R-Phycoerythrin Streptavidin (1:500 dilution in FACS buffer, Jackson Immunoresearch, Cat #016-110-084). Cells were washed twice and resuspended in FACS buffer. Fluorescence was measured using a Becton Dickinson FACS Canto II-HTS equipment. Data was analyzed using Graphpad Prism software and IC₅₀ values were reported.

[8] = biological target: T3, recombinant human IL4Rα-his protein (in …); assay: competitive ELISA: coated human IL4Rα-his, blocked ligand biotin human IL4; remark: listed apart in the source

EC50 [2]: 0.246 nM
IC50 [3]: 1.8 nM
B1: mouse antibody B1D2F7D3B5 (antibody, V domains shown)
VH: EVKLVESGGGLVKPGGSLKLSCAASGFTFSSYAMSWVRQTPEKRLEWVASISSGDSTYYLDSVKGRFTISRDNAMNILYLQMSSLRSEDTAVYYCERSGGSAPYWGQGTLVSVSA
VL: QIVLTQSPAIMSASPGEMVTISCSASSSVSYMYWYQQKPGSSPKPWIYRTSNLASGVPARFSGSGSGTSYSLTISSMEAEDAATYYCQQYHSFPLTFGAGTKLELK
notes: Mouse hybridoma mAb
binding result [1]: no binding (tested: 66.7 nM (highest concentration tested))

EC50 [2]: 0.221 nM
IC50 [3]: 2.88 nM
B2: mouse antibody B9D1D11F8D8 (antibody, V domains shown)
VH: B1 VH with M75R, M82V, V92M, S112T
VL: B1 VL with E17D, S30N
notes: Mouse hybridoma mAb
binding result [1]: no binding (tested: 66.7 nM (highest concentration tested))

Inhibition on IL4 induced STAT6 phosphorylation (IC50, nM) [4]: 0.26 nM
Inhibition on IL13 induced STAT6 phosphorylation (IC50, nM) [4]: 0.6 nM
EC50 [1]: 0.29 nM
EC50 [2]: 0.251 nM
EC50 [5]: 0.412 nM
EC50 [6]: 0.291 nM
IC50 [7]: 0.5 nM
IC50 [3]: 0.81 nM
IC50 [8]: 1.64 nM
B3: mouse antibody B8G11F2B7G5E8 (antibody, V domains shown)
VH: EVQLQQSGADLVRPGASVKLSCTASGFNIKDTYMHWVKQRPEQGLEWVGRIDPTNGYTIYASKFQGKATITADTSSNTAYMQLSSLTSGDTAVYHCVSRRPWFAYWGQGTLVTVSA
VL: DILMTQTPLSLPVSLGAQASISCRSSQSIVHSNGNTYLEWYLQKPGQSPKLLIYKVTNRFSGVPDRFSGSGSGTDFTLKISRVEAEDLGIYYCFQGSHVPYTFGGGTKLEIK
notes: Mouse hybridoma mAb; also called Mouse B8G11F2B7G5E8; mAb B8G11F2B7G5E8

Inhibition on IL4 induced STAT6 phosphorylation (IC50, nM) [4]: 0.26 nM
Inhibition on IL13 induced STAT6 phosphorylation (IC50, nM) [4]: 0.76 nM
EC50 [5]: 0.775 nM
IC50 [7]: 0.36 nM
IC50 [8]: 1.82 nM
B4: chimeric antibody B8G11F2B7G5E8 (antibody, human IgG4 S228P, kappa, V domains shown)
VH: B3 VH
VL: DILMTQTPLSLPVSLGAQASISCRSSQSIVHSNGNTYLEWYLQKPGQSPKLLIYKVTNRFSGVPDRFSGSGSGTDFTLKISRVEAEDLGIYYCFQGSHVPYTFGGGTKLEIKR
notes: Mouse variable domains on human IgG4/kappa; also called Chimeric B8G11F2B7G5E8; chB8G11F2B7G5E8

Inhibition on IL4 induced STAT6 phosphorylation (IC50, nM) [4]: 0.19 nM
Inhibition on IL13 induced STAT6 phosphorylation (IC50, nM) [4]: 0.27 nM
EC50 [1]: 0.33 nM
EC50 [2]: 0.159 nM
EC50 [5]: 0.307 nM
EC50 [6]: 0.329 nM
IC50 [3]: 0.812 nM
IC50 [8]: 1.89 nM
B5: mouse antibody C2C1A1A1 (antibody, V domains shown)
VH: EVQLVESGGGLVQPGGSLKLSCAASGFTFSTYGMSWVRQTPDKRLELVATINSNGGSTSYPDSVKGRFTISRDNAKNTLYLQMSSLKSEDTAMFYCARFFRFRNAMDYWGQGTSVTVSS
VL: DIQMTQSPASLSASVGETVTITCRTSENIYSYLAWYQQKQGKSPQFLVYNAKTLAEGVPSRFSGSGSGTQFSLNINSLQSEDFGSYYCQHYYGPPTWTFGGGTKLEIK
notes: Mouse hybridoma mAb; also called Mouse C2C1A1A1

Inhibition on IL4 induced STAT6 phosphorylation (IC50, nM) [4]: 0.27 nM
Inhibition on IL13 induced STAT6 phosphorylation (IC50, nM) [4]: 0.56 nM
EC50 [5]: 0.63 nM
IC50 [7]: 0.48 nM
IC50 [8]: 3.12 nM
B6: chimeric antibody C2C1A1A1 (antibody, human IgG4 S228P, kappa, V domains shown)
VH: B5 VH
VL: DIQMTQSPASLSASVGETVTITCRTSENIYSYLAWYQQKQGKSPQFLVYNAKTLAEGVPSRFSGSGSGTQFSLNINSLQSEDFGSYYCQHYYGPPTWTFGGGTKLEIKR
notes: Mouse variable domains on human IgG4/kappa; also called Chimeric C2C1A1A1; chC2C1A1A1

EC50 [1]: 108 nM
EC50 [2]: 0.183 nM
EC50 [6]: 108 nM
IC50 [3]: 0.726 nM
B7: mouse antibody C2B2F7B7 (antibody, V domains shown)
VH: B5 VH with S59N, F94Y, F102I
VL: B5 VL with T25A, N74K, S80P, P94T
notes: Mouse hybridoma mAb
